Assay results: the nanobody polyreactivity screen of Harvey et al. (2022)

Assay: yeast display, Sf9 membrane polyspecificity reagent, FACS + sequencing; frameworks hold sequencing errors
Method in brief: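 Nanobodies from a synthetic yeast display library (Saccharomyces cerevisiae BJ5465), induced 36–48 hours with galactose, were stained 1 hour at 4 °C with 10% biotinylated, detergent-solubilized Sf9 membrane reagent, enriched on streptavidin microbeads, then FACS-sorted. Anti-HA (expression) and streptavidin (reagent binding) fluorescence set low and high (top ~1%) gates. Polyreactivity labels come from the gate of origin. Genes were colony-PCR amplified, MiSeq 2 × 250 sequenced and filtered by CDR length.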

Sequence	polyreactivity (PSR sort gate)
QVQLVESGGGLVQAGGSLRLSCAASGITFTEYAMGWYRQAPGKERELVAAITGSGTSTYYADSVKGRFTISRDNAKNTVYLQMNSLKPEDTAVYYCAARTRGTAYNYWGQGTQVTVSS	high polyreactivity
QVQLVDSRGGLVQAGGSLRLSCAASGRTFYRYAKGWDRPAPGKERDLVAVITSGSRTKYADSVKGRFTISRDTAKITVYLQMKSLKPEDTAVYSCAARGLALEGKSSGEYWGQGTQVTVSS	high polyreactivity
QVQLVESGGGVVQAGGSLRLSCAASGSTFGRYAMGWYRQAPGKERELVAAISWSGGSTYYADSVKGRFTISRDNAKNTVYLQMNSLKPEDTAVYYCNKYWRGSSSRDDYWGQGTQVTLSS	high polyreactivity
QVQLVESGGGLVQAGGSLRLSCAASGSTFRPYAMGWYRQAPGKERELVAAITSGGNTYYADSVKGRFTISRDNAKNTVYLQMNSLKPEDTAVYYCAARPYYYIVRGTEYDYWGQGTQVTVSS	high polyreactivity
QVQLVESGGGLVQAGGSLRLSCAASGCIFYSNAMGWYRQAPGKERELVAAIARSGGSTYYADSVKGRFTISRDNAKNPVYLQMNSLKPEDTAVYYCNAKFRKADYDSWGQGTEVTVSS	high polyreactivity
QVQLVESGGGLVQAGGSLRLSCAASGITFPGNAMGWYRQAPGTERELVAVIRKSGTSTYYADSVKGRFTISRDNAKNTVYLQMNSLKPEDTAVYYCAAGGPSTLDDYWGQGTQVTVSS	low polyreactivity
QVQLVESGGGLVQAGGSLRLSCAASGGTFGSNAMGWYRQAPGKERELLAAITSRGGSTSYADSVKGRFTISRDYAKNTVYLQMKSLKPEDTAVYYCASVRYYWRPYVVNFDYWGQGTQVTVSS	high polyreactivity
QVQLIESGGGLVQAGGSLRLSCAASGSIFQYTMGWYRQAPGKERELVAAITRSGSSTYYADSVKGRFTISRDNAKNTVYLQMNSLKPEDTAVYYCAHTIRRVLGYGSWGQGTQVTVSS	high polyreactivity
QVQLVESGGGLVQAGGSLRLSCAASGRIFSNNAMGWYRQAPGKERELVAAITNSGGSTYYADSVKGRFTISRDNAKNTVYLQMNSLKPEDTAVYYCNARSKVAYYRHYYWGQGTQVTVSS	low polyreactivity
QVQLVESGGGLVQAGGSLRLSCAASGRIFFFNAMGWYRQAPGKERELVARITRGGSTNYADSVKGRFTISRDNAKNTVYLQMNILKPEDTAVYYCARDGYATTNARYGYDYWGQGTQVTVSS	low polyreactivity
QVQLVESGGGLVQAGGSLRLSCAASGYIFEVNAMGWYRQAPGKERELVATIDTSSGSTNYADSVKGRFTISRDNAKNTVYLQMNSLKPEDTAVYYCAADDETVFLQDDYWGQGTQVTVSS	low polyreactivity
QVQLVESGGGLVQAGGSLRLSCAASGYTFGKYVMGWYRQAPGKERELVAAISISGSGTYYADSVKGRFTISRDNAKNTVYLQMNSLKPEDTAVYYCAARGYGFPELDYWGQGTQVTLSS	high polyreactivity
QVQLVESGGGLVQAGGSLRLSCAASGRTVPYNAMGWYRQAPGKESELVAAISGRGGSTYYADSVKGRFTISRDNAKKTVYLQMTSLKPEDTAVYYCAARLPWSYYRTQGYNYWGQGTQVTVSS	high polyreactivity
QVQLVESGGGLVQAGGSLRLSCAASGRIFTKYAMGWYRQAPGKERELVAAISRGGSNTYYADSVKGRFTISRDIAKNTVYLQMNSLKPEDTAVYYCNKPYSYVGWPGTGPDPKTVYYWGQGTQVTVSS	high polyreactivity
QDQLVESGGGLVQAGGSLRLSCAASGRIFYTNAMGWYRQAPGQERDLVAVISWGGDTTYYADSVKGRFTISRDNAKNTVYLQMNSLKPEDTAVYYCNGDWGPTYEIYDSWGQGTQVTVSS	low polyreactivity
QDQLVESGGGLVQAGGSLRLSCAASGRIFGINAMGWYRQAPGKERELVAAISSGGSTYYADSVKGRFTISRDNAKNTVYLQMNILKPEDTAVYYCAKGPSWKYYSYTLDYWGKGTQVTVSS	low polyreactivity
QVQHVESGGGLVQAGGSLRLSCAAYGSIFGWYGMGWYRQAPGKERELVAAITRGGSTYYADSVKGRFTISRDNAKNTVYLQMISLKPEDTAVYYCAKRSGQQYGGYGYWGQGTHVTVSS	low polyreactivity
QVQLVESGGGLDQAGGSLRLICASSGRTFYPNAMGWYRQAPGKEREFVAAITWSGGGTFYADSVKGRFTISRDHAKNTVYLQMLSLNPEDTAVYYCAARLDTYQTQSVITPAALYYWGQGTQETVSS	low polyreactivity
QVQLVESWGGLVQAGGSLRLSCAASGRIFVKYAMGWYRQAPGKERELVAAISWIGGSTYYADSVKGRFTISRDNAKNTVYLQMNSLKPEDTAVYYCAAQGKDYEASPGYDGGRNYWGQGTQVTVSS	low polyreactivity
QLQLVESGGGLVQAGGSLRLSCAASGRIFSRYAMGWYRQATGKERELVAAINKSGGSTYYADSVKGRFTFSRDNAKNTVYLQMNSLKPEDTAVYYCNAVYYWYKGDYWGQGTLVTVSS	high polyreactivity
QVQLVESGGGLVQAGGSLRLSCAASGSTFVWYAMGWYRQEPGKERELVAAINFGGTTYYADSVNGRFTISRDNAKNTVYLQMNSLKTEDTAVYYCATEYDYGSWYPDGWGIFDYWGQGTQVTVSS	low polyreactivity
QVQLVESGGGLVQAGGSLRLSCAASGITFTRYTKGWYRQAPGKERELVAAIRGSGGSTYYADSVKGRFTISRDNAKNTVYLEMNSLKAEDTAVYFCAADKYLYGRLTRNFHYYYWGLGTQVTVSS	low polyreactivity

Sequence	polyreactivity (PSR sort gate)
QVQLVESGGGLVQAGGSLRLSCAASGSIFKFNAMGWYRQAPGKERELDASITWTGTSTHYADSVKGRFTISRDNAKNTVFLQMNSLKPEDTAVYYCATYLYLWYEKGYTYDYWGQGTQVTVSS	high polyreactivity
QVQLVESGGGLLQAGGSLRLSCAASGRTFAYNAMAWYRQAPGKERELVAAITDSDGNTYYADSVKGRFTISRDNAKNTVYLLMNSLKPEDTAVYYCAADYIILDHVTRGFVYEYWGQGTQVTVSS	low polyreactivity
QVQLVESGGGLVQAGGSLRLSCAASGSTFPDYAMGWYRQAPGKERELVAAIDGSSGSTYYADSVKGRFTISRDNAKNSVYLRMYSLKPEDTAVYYCNVVASLYTYGYWGQGTQVTVSS	low polyreactivity
QVQLVESGGGLVQAGGSLRLSCAASGSTFWVYTKGWYRQAPGKERELVAAITGSTGNTYYADSVKGRFTISRDNPKNTVYFQMNSLKPEDTAVYYCSADSYWSYRYPMGYDNWGQGSQVTVSS	low polyreactivity
QVQLVESGGGLVQAGGSLRLSCADSGSTFNSNVMGWYRQAPGKERELVAAISRSGGNTYYADSVKGRFTISRDNAKNTVYLQMNSLKPEDTAVYYCNKDGRYPYDYWGQGTQVTVSS	high polyreactivity
QVHLVESGGGLVQAGGSLRLRCAASGIIFKSYAMGWYRQAPGKERELVAAITKRGGSTYYADSVKGRFTISRDNAKNTVYLQMNSLKPEDTAVYDCAADDGVGNTDDYWGQGTQVTVSS	high polyreactivity
KVQLVESGAGLVQAGGSLRLSCAASGSTFAQYAMGWYRQAPGKERELVAAISRGGGSTYYADSVKGRFTISRDTAKNTVYLQMHSLKPEDTAVYYCAADPRYRVTLGFDYWGQGTQVTVSS	high polyreactivity
QVQLVETGGGLVQAGGILRLSCAASGSTFGYNAMGWYRQAPGKERELVASITWSSGSTYYADSVKGRFTISRDNAKNTVYLQMNSLKPEDSAVYYCYAKRFRHYGGYYYWGQGTQVTVSS	low polyreactivity
QVQLVESGGGLVQAGGTLRLSCSASGRTFFSYAMGWYRQAQGKERELVAAITYSGGRTYYADSVKGRFTISRDNAKNTVYVQMNSLKRDDTAVYYCAGTHYREKMDYWGQGTQLTVSS	low polyreactivity
QVQLVESGVGLVQAGGSLRLSCAASGRTFNSYAMGWYRQAPGKERELVATISSRGGNTFYADSLKGRCTISRDNAKNTVYLQMNSLKPEDTAVYYCAARRGVRKYPSAGYEYWGQGTQVTVSS	high polyreactivity
QVQLVESGGGLVQEGGSLRLSCAASGLTFAGYAMGWYRQATGKERELVAAITTGGSTYYADSVNGRFTISRDNAKNTVYLQMNSLKPEDTAVYYCAARRVRKALVGYGYWGQGTQVTVSS	high polyreactivity
QVLLVESGGGLVQAGGSLRLSCAASGSTFVVNTMRWYRLAPGKERELVAAISTGSSTYADSVKGRFTISRDNAKKTVYLQMNSLKPEDTAVYYCNTAFPGKYDYWGQGTQVTVSS	low polyreactivity
QVPLVESGGGLVQAGGSLRLSCAASGIIFGKYTMGWYRQAPGKERELVAAISKRGGSTYYADSVKGRFTISRDNAKNTVYLQMYSLKRVDTAVYYCAAERISSYDYWGQGTQVTVSS	high polyreactivity
QVQLVESGGGLVQAGGSLRLSCAASGSIFVGYGAMGWYRQAPGKERELVAAITSGTSTYYADSVKGRFTISRDNAKNTVYLQMNSLKPEDTAVYYCAARGFLKYVTEFDYWGQGTQVTVSS	low polyreactivity
QVQLVESGVGLVQGGGSLRLTCAASGYTFPRYTKGWYRQPPGKERELVASINWSGGSTYYADSVKGRFTISRDNAKNNVYLQMNCLKPDDTAVYFCNKAYVSRYDYWGQGSQVTVSS	high polyreactivity
QVQLVESGGGLVQAGGSLRLSCAASGFTFDGYGMGWYRQAPGKERELVAVITSGGSTKYADSVKGRFTISRDNAKNTVYLQMNSLKPEDTAVYYCAADNRIRGVAFDYWGQGTKVTVSS	low polyreactivity
QVQLVESGGGLVQAGGSLRLSCAASGSTFEGYAMGWYRQAPGKERELVAVISSGSITKYADSVKGRFTISRDNAKNTVYLQMNSLKQEDTAVYYCAADWTYVRFDYWGQGTQVTVSS	low polyreactivity
QVQLVESGGGLVQAGGSLRLSCAASGITFPLYAMGWYRQAPGKERELVAAITSTGGTTYYADSVKGRFTISRDNAKNTVYLQMNSLKPEDTAVYYCAAEWLVYGYQRGYYYWGQGTQVTVSS	high polyreactivity
QVQLVESGGGLVQAGGSLRLSCAASGLIFYRNAMGWYRQAPGKERELVAAIRFSTGSTYYADSVKGRFTISRDNAKNTVYLEMNSLKPEDTAVYYCAAALPGYGDYYYWGQGTQVTVSS	high polyreactivity
QVQLVESGGGLVQAGGSLRLSCAASGSTFRTNTMGWYRQAPGKERELVAAITGTGGSTYYADSVKGRFTISRDNAKNTVYLQMNSLKPEDTAVYYCAKRYYRWRRDYSWGQGTQVTVSS	high polyreactivity
QVQHVESGGGLVQAGVSLRLSCAASGSIFPYNAMGWYRQAPGKERELVATISSGGSTNYADSVKGRFTISRDNAKNTVYLQMNSLKPEDTAVYYCAGDVIVFYYAPNYWGDIEYGYWGQGTQVTVSS	low polyreactivity
